The supplement of paper PMC10126150
± gives the standard deviation of the averaged measurements.

Test system: ATP
Experiment: switch fluorescence ratio, 500 uM ATP over buffer (Cy3 cluster intensity, sum of 5 cycles each) (fold (ratio)); higher = stronger signal-on switching upon ATP binding; sequences stand for … in TCGTCGGCAGCGTCAGATGTGTATAAGAGACAGTTTTTTTTTTTTTTTTTTTTTTTTT…TC
Details: aptamer strand: ATP DNA aptamer (quencher-CACCTGGGGGAGTATTGCGGAGGAAGG + anchor), 100 nM annealed; ATP concentration: 500 uM
How it was run: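 The quencher-labelled ATP aptamer, at 100 nM, was annealed to Cy3-labelled switching-strand clusters on a modified Illumina MiSeq flow-cell. The clusters were imaged in selection buffer, then after 15 min with 500 uM ATP at 22 °C, and this buffer/ATP cycle ran five times with NaOH stripping and re-annealing between runs. Per-cluster fluorescence ratios, summed target-cycle over summed buffer-cycle Cy3 intensity, were averaged per switch-domain sequence. Clusters outside 100-1000 RFU were excluded.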
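Further: ATP exposure 15 min at 22 °C before imaging.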

| Sequence | switch fluorescence ratio |
| --- | --- |
| ACGGGAGACC | 1.02 ± 0.018 |
| ACGGGATCAT | 1.07 ± 0.054 |
| ACGGGCAAGC | 1.72 ± 0.23 |
| ACGGGCGGGC | 1.29 ± 0.032 |
| ACGGGCTAAC | 1.09 ± 0.14 |
| ACGGGCTTTA | 1.03 ± 0.026 |
| ACGGGCTTTT | 1.01 ± 0.012 |
| ACGGGGAGGC | 1.07 ± 0.028 |
| ACGGGGAGTC | 1.039 ± 0.0052 |
| ACGGGGATTG | 1.02 ± 0.042 |
| ACGGGGCATC | 1.07 ± 0.013 |
| ACGGGGCCGG | 1.06 ± 0.032 |
| ACGGGGCTAA | 1.12 ± 0.15 |
| ACGGGGGCGT | 1.05 ± 0.068 |
| ACGGGGGTAA | 1.18 ± 0.3 |
| ACGGGGGTG | 1.04 ± 0.074 |
| ACGGGTGACC | 1.03 ± 0.032 |
| ACGGGTGTCC | 0.995 ± 0.066 |
| ACGGGTTGTG | 0.96 ± 0.037 |
| ACGGGTTGTT | 1.02 ± 0.021 |
| ACGGGTTTTT | 0.999 ± 0.015 |
| ACGGTACTGT | 1.4 ± 0.045 |
| ACGGTATAGT | 1.1 ± 0.017 |

| Sequence | switch fluorescence ratio |
| --- | --- |
| ACGGTATTTT | 1.09 ± 0.052 |
| ACGGTCATAT | 1.08 ± 0.027 |
| ACGGTCTGGA | 1 ± 0.041 |
| ACGGTGATAT | 1.03 ± 0.028 |
| ACGGTGCTTG | 0.99 ± 0.015 |
| ACGGTGGACT | 1 ± 0.035 |
| ACGGTTAGGG | 1.05 ± 0.043 |
| ACGGTTTAAT | 1.04 ± 0.029 |
| ACGGTTTATG | 1.01 ± 0.058 |
| ACGTAACGCT | 1.3 ± 0.052 |
| ACGTAATGG | 1.57 ± 0.059 |
| ACGTAGCATG | 2.46 ± 0.45 |
| ACGTAGCTTT | 1.37 ± 0.36 |
| ACGTAGGGGT | 1.21 ± 0.27 |
| ACGTAGGGTT | 1.08 ± 0.012 |
| ACGTAGTAAC | 1.03 ± 0.022 |
| ACGTCAAGGT | 1.0871 ± 0.00061 |
| ACGTCAGGGT | 1.0361 ± 0.00046 |
| ACGTCTACTC | 1.37 ± 0.1 |
| ACGTGACACC | 1.35 ± 0.063 |
| ACGTGCTTTT | 0.999 ± 0.018 |
| ACGTGGAGGA | 1.054 ± 0.0031 |
| ACGTGGGGGG | 1.04 ± 0.082 |

| Sequence | switch fluorescence ratio |
| --- | --- |
| ACGTGGTGTT | 1.003 ± 0.0035 |
| ACGTGTAGGC | 1.01 ± 0.04 |
| ACGTTAAAAT | 1.05 ± 0.021 |
| ACGTTACTAC | 1.52 ± 0.03 |
| ACGTTATTGG | 1.14 ± 0.02 |
| ACGTTGAAGT | 1.01 ± 0.019 |
| ACGTTGAATG | 1.01 ± 0.011 |
| ACGTTGGATT | 1.01 ± 0.014 |
| ACGTTGGGCA | 0.99 ± 0.014 |
| ACGTTGGTGC | 1.06 ± 0.029 |
| ACGTTTAACT | 1.25 ± 0.015 |
| ACGTTTTACA | 1.183 ± 0.0076 |
| ACGTTTTTGC | 1.02 ± 0.044 |
| ACTAAAAATT | 1.05 ± 0.04 |
| ACTAAACTTG | 1.014 ± 0.0022 |
| ACTAAATAAA | 1.14 ± 0.23 |
| ACTAAGAATT | 1.02 ± 0.013 |
| ACTAATAGTC | 1.02 ± 0.038 |
| ACTAATGTTT | 0.994 ± 0.036 |
| ACTAATTAGC | 1.01 ± 0.031 |
| ACTACACTTT | 1.27 ± 0.018 |
| ACTACATTGG | 1.033 ± 0.0065 |
| ACTACCCCAA | 1.94 ± 0.14 |

| Sequence | switch fluorescence ratio |
| --- | --- |
| ACTACCCTCG | 1.18 ± 0.065 |
| ACTACGTACA | 1.68 ± 0.024 |
| ACTAGAGGCA | 1 ± 0.024 |
| ACTAGAGGTT | 1.06 ± 0.039 |
| ACTAGATTCT | 0.979 ± 0.013 |
| ACTAGCTACT | 1.138 ± 0.0094 |
| ACTAGCTGTA | 0.982 ± 0.034 |
| ACTAGGATTC | 0.986 ± 0.0028 |
| ACTAGGTGTG | 1.04 ± 0.013 |
| ACTATGATCA | 1.02 ± 0.014 |
| ACTATTAAT | 1.024 ± 0.0063 |
| ACTATTGCCA | 1.04 ± 0.017 |
| ACTATTGGGT | 0.988 ± 0.015 |
| ACTATTTGCG | 0.991 ± 0.042 |
| ACTATTTTTT | 1 ± 0.029 |
| ACTCAAAACG | 1.11 ± 0.09 |
| ACTCAAGGCT | 1.07 ± 0.049 |
| ACTCAGGGGG | 1.27 ± 0.32 |
| ACTCATTCGG | 1.01 ± 0.015 |
| ACTCGCGGGT | 1.04 ± 0.021 |
| ACTCGGGACG | 0.9715 ± 0.0067 |
| ACTCGGGCAG | 0.9937 ± 0.002 |
| ACTCGGGGGG | 0.991 ± 0.023 |

| Sequence | switch fluorescence ratio |
| --- | --- |
| ACTCGGGTAC | 1.79 ± 0.15 |
| ACTCGTAATC | 3.04 ± 0.48 |
| ACTCGTAGCA | 1.19 ± 0.012 |
| ACTCGTCACA | 1.15 ± 0.059 |
| ACTCTAGTTC | 1.063 ± 0.01 |
| ACTCTATAAT | 1.146 ± 0.0092 |
| ACTCTTATTG | 0.988 ± 0.0039 |
| ACTCTTGTTG | 1.01 ± 0.022 |
| ACTGAAAAAG | 0.987 ± 0.019 |
| ACTGACTGGT | 1.06 ± 0.037 |
| ACTGATAGAG | 1.02 ± 0.065 |
| ACTGATAGGC | 1.18 ± 0.23 |
| ACTGATCATG | 1.02 ± 0.028 |
| ACTGATGAAT | 1.06 ± 0.023 |
| ACTGATGATC | 1.016 ± 0.0039 |
| ACTGATTTTT | 1.015 ± 0.0036 |
| ACTGGAAGTC | 0.9875 ± 0.0088 |
| ACTGGATGCT | 0.995 ± 0.12 |
| ACTGGCAGC | 1.05 ± 0.017 |
| ACTGGCAGGG | 1.01 ± 0.028 |
| ACTGGGAGGC | 1 ± 0.096 |
| ACTGGGCATG | 1.01 ± 0.032 |
| ACTGGGCCGG | 1.04 ± 0.065 |

| Sequence | switch fluorescence ratio |
| --- | --- |
| ACTGGGGGCT | 0.975 ± 0.0098 |
| ACTGGGGTAG | 1.02 ± 0.061 |
| ACTGGGTCCG | 1 ± 0.057 |
| ACTGGTCTCA | 1.002 ± 0.0098 |
| ACTGTAAGTC | 1.06 ± 0.026 |
| ACTGTACGGC | 1.46 ± 0.016 |
| ACTGTATACG | 1.08 ± 0.026 |
| ACTGTCCCGT | 1.019 ± 0.0029 |
| ACTGTGCGAC | 1.58 ± 0.025 |
| ACTGTGCGTA | 1.03 ± 0.054 |
| ACTGTGCTCT | 1.02 ± 0.016 |
| ACTGTGGGCA | 1.01 ± 0.02 |
| ACTGTTAATG | 1.01 ± 0.026 |
| ACTGTTAGAT | 1.02 ± 0.054 |
| ACTGTTAGGT | 1.036 ± 0.0055 |
| ACTGTTAGTG | 1.02 ± 0.034 |
| ACTGTTTTCC | 1.066 ± 0.0042 |
| ACTGTTTTCG | 1.02 ± 0.028 |
| ACTTAAAGTC | 0.973 ± 0.029 |
| ACTTAACCGG | 1.05 ± 0.016 |
| ACTTAAGAAA | 1.16 ± 0.13 |
| ACTTAAGGTC | 1.001 ± 0.0035 |
| ACTTAATCGT | 1.02 ± 0.045 |

| Sequence | switch fluorescence ratio |
| --- | --- |
| ACTTACATGG | 1.23 ± 0.06 |
| ACTTACTTTA | 1.18 ± 0.04 |
| ACTTAGAAAT | 1.046 ± 0.01 |
| ACTTAGCATT | 1.14 ± 0.024 |
| ACTTAGTCA | 1.02 ± 0.021 |
| ACTTAGTCCA | 1.03 ± 0.034 |
| ACTTAGTGCC | 1.087 ± 0.0073 |
| ACTTAGTTTT | 1.0386 ± 0.00082 |
| ACTTATAATA | 1.04 ± 0.038 |
| ACTTATTAAT | 1.03 ± 0.027 |
| ACTTATTGAA | 1.11 ± 0.17 |
| ACTTCAAGGG | 1.26 ± 0.34 |
| ACTTCACTGC | 1.34 ± 0.042 |
| ACTTCATGGG | 1.01 ± 0.029 |
| ACTTCCCAAC | 1.33 ± 0.047 |
| ACTTCCGCGA | 1.75 ± 0.11 |
| ACTTCGGTTT | 1.01 ± 0.035 |
| ACTTCTCTTA | 1.01 ± 0.013 |
| ACTTCTGGTG | 1.23 ± 0.031 |
